B1: WD repeat-containing protein slp1 (Schizosaccharomyces pombe (strain ATCC 38366 / 972)), P78972 (parent)
chain: MEIAGNSSTISPTFSTPTKKRNLVFPNSPITPLHQQALLGRNGRSSKRCSPKSSFIRNSPKIDVVNTDWSIPLCGSPRNKSRPASRSDRFIPSRPNTANAFVNSISSDVPFDYSESVAEACGFDLNTRVLAFKLDAPEAKKPVDLRTQHNRPQRPVVTPAKRRFNTTPERVLDAPGIIDDYYLNLLDWSNLNVVAVALERNVYVWNADSGSVSALAETDESTYVASVKWSHDGSFLSVGLGNGLVDIYDVESQTKLRTMAGHQARVGCLSWNRHVLSSGSRSGAIHHHDVRIANHQIGTLQGHSSEVCGLAWRSDGLQLASGGNDNVVQIWDARSSIPKFTKTNHNAAVKAVAWCPWQSNLLATGGGTMDKQIHFWNAATGARVNTVDAGSQVTSLIWSPHSKEIMSTHGFPDNNLSIWSYSSSGLTKQVDIPAHDTRVLYSALSPDGRILSTAASDENLKFWRVYDGDHVKRPIPITKTPSSSITIR
partner: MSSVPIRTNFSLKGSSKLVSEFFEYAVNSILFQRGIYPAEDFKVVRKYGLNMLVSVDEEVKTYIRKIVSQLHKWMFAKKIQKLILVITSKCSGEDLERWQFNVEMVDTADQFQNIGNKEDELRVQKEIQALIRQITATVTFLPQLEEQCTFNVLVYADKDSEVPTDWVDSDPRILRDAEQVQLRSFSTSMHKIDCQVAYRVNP

Variants of: B1
Conditions: with mad2_schpo mad2, O14417

Row | Variant | effect of a mutation on the interaction
1 | A131P;F132Y | disrupting interaction

From IntAct's records for PubMed 9461438
